Results published in patent publication US9394379B2, “Process for producing water-soluble hyaluronic acid modification” (Chugai Seiyaku Kabushiki Kaisha, priority 2004, dated 2016).
Where no end group is shown, it is not given here.

Columns and labels:
[1] = Residence time in blood of HA-GLP-1 mutant conjugate (Test Example 5); type: in vivo, rat
Experimental: The HA-GLP-1 mutant conjugate solution obtained in Example 15-2 was diluted with PBS that contained 0.05% Tween 80 (pH 7.4; hereinafter also referred to as “solvent Z”), and the thus diluted solution was then administered at a dosage of 50 μg/kg into the vein of a rat as a single dose. Thereafter, 1, 4, 8, 24, 48, 72, 96, and 168 hours after the administration, the blood was collected (heparin treatment). The blood was then centrifuged, so as to obtain plasma. This plasma sample was cryopreserved at −20° C. or less until measurement was carried out.
Thereafter, they were analyzed using a microplate reader. Conditions for measurement are described below:
Microplate reader: SPECTRA MAX GEMINI (manufactured by Molecular Devices)
Detection: Fluorescence (EX: 355 nm, EM: 460 nm)
The HA-GLP-1 mutant conjugate solution obtained in Example 15-2 was diluted with solvent Z and Assay Buffer included with kit W, so as to prepare standard solutions having concentrations of 12.8, 6.4, 3.2, 1.6, 0.8, 0.4, 0.2, 0.1 μg/ml and 0 μg/ml. Thereafter, 5 μl of normal rat plasma was added to this standard solution, so as to prepare a sample used for calibration curve.
Assay Buffer included with kit W was added to the HA-GLP-1 mutant conjugate-administered rat plasma sample, so as to prepare a measurement sample.
The concentration of the HA-GLP-1 mutant conjugate in plasma was calculated based on the calibration curve obtained from the fluorescence intensity of each standard sample using analysis software SOFTmax PRO (manufactured by Molecular Devices).
With regard to data of a change in the concentration in blood of the administered HA-GLP-1 mutant conjugate, pharmacokinetic parameters were calculated using WinNonlin Ver 4.0.1 (manufactured by Pharsight). With regard to a change in the concentration in plasma of each individual, model-independent analysis was carried out, so as to calculate the mean residence time in blood (MRT). The half-life (t1/2) was calculated using the data of the final 3 measurable points of each individual.

[2] = system: BKS.Cg-+Lepr^db/+Lepr^db/Jcl mouse; experiment: Oral sugar tolerance test; type: in vivo; details: for Hypoglycemic ratio: mean value
Experimental: 8-week-old male BKS.Cg-+Lepr^db/+Lepr^db/Jcl mouse (manufactured by CLEA Japan, Inc.) was subjected to fasting overnight. Thereafter, the HA-GLP-1 mutant conjugate solution obtained in Example 15-2 that had been diluted with solvent Z (peptide amount: 1.5 μg/kg, 15 μg/kg, or 150 μg/kg) or solvent Z was intravenously administered to the above […]. 1 minute after the intravenous administration, a 50% glucose solution (Otsuka Pharmaceutical Co., Ltd.) was orally administered at a dosage of 3 g/kg. […]
The blood was collected from the tail portion before administration of glucose (value at hour 0), and 0.5, 1, 2, and 4 hours after the administration of glucose. Thereafter, the blood glucose level was measured by the enzyme method (hexokinase method, Autosera S GLU (Daiichi Pure Chemical Co., Ltd.; equipment name: BioMajesty JCA-BM1250 (JEOL Ltd.)).
The blood glucose level was calculated by the following hypoglycemic ratio: […]
The mean value and standard deviation of each group were calculated from the calculated hypoglycemic ratio.

[3] = intravenously administered to a rat
[4] = rat vein, 50 μg/kg single dose, mean value

HA-GLP-1 mutant conjugate: GLP-1 mutant (Gly at position 8, Cys at position 37) bound to HA-AM-MI/SUC; 3.7 GLP-1 mutant/HA (mol/mol) (HGEGTFTSDVSSYLEGQAAKEFIAWLVKGRC; also: bound to modified hyaluronic acid HA-AM-MI/SUC, 3.7 peptide per HA, attachment site not given here; UniProt P01275 98-128, looked up, variant A8G G37C)
MRT [1, 3]: 30.2 h | half-life [1, 3]: 23.6 h | Distribution volume [1, 4]: 53.4 mL/kg | Mean residence time in blood [1, 4]: 30.2 h | Total clearance [1, 4]: 1.8 mL/h/kg | half-life [1, 4]: 23.6 h | hypoglycemic action compared with GLP-1 (Human, 7-37) ([2]; oral sugar tolerance test): significantly increased | Hypoglycemic ratio ([2]; peptide amount 1.5 μg/kg intravenous 1 minute before oral glucose 3 g/kg): 3.0% | Hypoglycemic ratio ([2]; peptide amount 15 μg/kg intravenous 1 minute before oral glucose 3 g/kg): 60.1% | Hypoglycemic ratio ([2]; peptide amount 150 μg/kg intravenous 1 minute before oral glucose 3 g/kg): 120.3%
